According to the supplement of paper PMC10065799, “High-throughput profiling of sequence recognition by tyrosine kinases and SH2 domains using bacterial peptide display” (eLife, 2023):

These sequences were tested against EPHB1 (UniProt P54762) (assay: phosphorylation enrichment, bacterial display (enrichment ratio); higher = better substrate or ligand; peptides without Tyr show the background).
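Note: 11-residue human phosphosite peptides and single-mutation variants displayed on the E. coli surface, counted by deep sequencing, each peptide's frequency after selection divided by its frequency in the unselected input library; frequency after pTyr selection over input frequency; kinase dosed for 20-30% of maximal phosphorylation in three min.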

EPHB1, sequence (P54762 whole entry, looked up): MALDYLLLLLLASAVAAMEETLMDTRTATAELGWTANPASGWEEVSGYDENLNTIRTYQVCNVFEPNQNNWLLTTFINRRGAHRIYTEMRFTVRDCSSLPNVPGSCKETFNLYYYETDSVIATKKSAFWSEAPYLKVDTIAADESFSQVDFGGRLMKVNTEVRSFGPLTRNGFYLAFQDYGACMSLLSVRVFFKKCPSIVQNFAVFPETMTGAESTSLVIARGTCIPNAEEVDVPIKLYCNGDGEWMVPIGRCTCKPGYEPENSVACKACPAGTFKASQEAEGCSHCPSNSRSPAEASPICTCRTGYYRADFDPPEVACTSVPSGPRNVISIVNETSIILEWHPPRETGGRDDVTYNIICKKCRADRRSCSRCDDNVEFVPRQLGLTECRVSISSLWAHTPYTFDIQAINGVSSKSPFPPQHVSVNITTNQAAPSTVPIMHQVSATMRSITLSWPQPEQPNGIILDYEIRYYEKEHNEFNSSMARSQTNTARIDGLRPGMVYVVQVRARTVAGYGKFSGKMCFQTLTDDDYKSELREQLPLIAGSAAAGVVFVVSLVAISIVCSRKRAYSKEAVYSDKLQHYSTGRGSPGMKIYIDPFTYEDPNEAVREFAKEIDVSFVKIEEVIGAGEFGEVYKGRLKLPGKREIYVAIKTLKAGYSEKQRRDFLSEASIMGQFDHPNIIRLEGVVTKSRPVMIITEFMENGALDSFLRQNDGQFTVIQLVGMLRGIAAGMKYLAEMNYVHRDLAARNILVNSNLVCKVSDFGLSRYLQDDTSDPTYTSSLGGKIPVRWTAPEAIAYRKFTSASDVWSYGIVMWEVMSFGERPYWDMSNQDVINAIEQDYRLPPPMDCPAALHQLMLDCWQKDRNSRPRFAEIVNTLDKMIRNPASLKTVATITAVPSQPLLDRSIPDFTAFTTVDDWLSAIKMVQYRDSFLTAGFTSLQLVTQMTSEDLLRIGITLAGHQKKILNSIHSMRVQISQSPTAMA

Row | Sequence | phosphorylation enrichment
1 | QEGPEYWDQET [HLA-A_Y83] | 0.809
2 | RSYSPCDYQPC [TNS1_Y796_Y796C] | 17.1
3 | DIDKIYVRTGI [PIK3CA_Y355] | 0.697
4 | LVMFIDAIFGM [SCN1A_Y1684_Y1684D] | 2
5 | ASGKYYAMKIL [AKT3_Y174] | 0.313
6 | VNNTVYGIDAM [EIF3J_Y143_A141T] | 0.479
7 | LSSLAYSGKDA [FXN_Y205] | 0.819
8 | FGISGYVVDSV [MAP2K3_Y214_L215V] | 0.543
9 | ENRKFYKDLKE [PURA_Y156_M157K_YF] | 0.312
10 | HDRREYSRFEK [ITGB7_Y758_Y753H] | 0.754
11 | SSVAGYACLAY [MVD_Y131_A128V] | 0.564
12 | VRVQLYDPDFM [CYP4A22_Y100_Y104F] | 0.717
13 | KDKLPYPYDDP [GPX2_Y125] | 0.599
14 | GLDSSYLLRDS [SH2D1A_Y29_G27S] | 0.343
15 | KFVKMYDNHQL [MYO9A_Y203_YF] | 0.442
16 | SSMNDYNPLEK [MYOC_Y479_I477N] | 0.422
17 | TDKLFYIFTSG [SLC27A4_Y243_YF] | 0.732

Row | Sequence | phosphorylation enrichment
18 | FGRTFYNQANM [MCCC2_Y196_I200N] | 0.786
19 | VFGEEYEEQPR [ZMYM2_Y1033] | 0.585
20 | SGPRHYTIAAL [TTR_Y125_R124H] | 0.516
21 | YRDMDYRSYPH [RBM10_Y41_R46H] | 0.578
22 | RSGNCYLDIRP [FBN1_Y1535] | 0.58
23 | IHKEFYDGLFP [BCR_Y561] | 0.802
24 | KQFWRYFPGNL [SLC25A4_Y112_A114P] | 0.625
25 | KSSDVYVSFDF [SORL1_Y136_YF] | 1.73
26 | PKEQKYSFLQN [GH1_Y68] | 0.465
27 | ILCTVYAFKTR [GRM3_Y754] | 0.577
28 | PSALGYSPSLH [LLGL2_Y40_R45H] | 0.573
29 | PVQAPYQKVVA [HBB_Y131_A130P] | 0.543
30 | QGIIIYKAAFF [SLC25A4_Y187_R188K_YF] | 1.21
31 | GIVEDYRPPLY [ACVRL1_Y421_F425L] | 0.382
32 | LHNLFYQLEAE [PKP2_Y616_S615F] | 1.35
33 | DTKDDYNALSV [IL17RB_Y457] | 0.495

These sequences were tested against Jak2 (UniProt O60674) in the same assay as above.
Jak2, sequence (O60674 whole entry, looked up): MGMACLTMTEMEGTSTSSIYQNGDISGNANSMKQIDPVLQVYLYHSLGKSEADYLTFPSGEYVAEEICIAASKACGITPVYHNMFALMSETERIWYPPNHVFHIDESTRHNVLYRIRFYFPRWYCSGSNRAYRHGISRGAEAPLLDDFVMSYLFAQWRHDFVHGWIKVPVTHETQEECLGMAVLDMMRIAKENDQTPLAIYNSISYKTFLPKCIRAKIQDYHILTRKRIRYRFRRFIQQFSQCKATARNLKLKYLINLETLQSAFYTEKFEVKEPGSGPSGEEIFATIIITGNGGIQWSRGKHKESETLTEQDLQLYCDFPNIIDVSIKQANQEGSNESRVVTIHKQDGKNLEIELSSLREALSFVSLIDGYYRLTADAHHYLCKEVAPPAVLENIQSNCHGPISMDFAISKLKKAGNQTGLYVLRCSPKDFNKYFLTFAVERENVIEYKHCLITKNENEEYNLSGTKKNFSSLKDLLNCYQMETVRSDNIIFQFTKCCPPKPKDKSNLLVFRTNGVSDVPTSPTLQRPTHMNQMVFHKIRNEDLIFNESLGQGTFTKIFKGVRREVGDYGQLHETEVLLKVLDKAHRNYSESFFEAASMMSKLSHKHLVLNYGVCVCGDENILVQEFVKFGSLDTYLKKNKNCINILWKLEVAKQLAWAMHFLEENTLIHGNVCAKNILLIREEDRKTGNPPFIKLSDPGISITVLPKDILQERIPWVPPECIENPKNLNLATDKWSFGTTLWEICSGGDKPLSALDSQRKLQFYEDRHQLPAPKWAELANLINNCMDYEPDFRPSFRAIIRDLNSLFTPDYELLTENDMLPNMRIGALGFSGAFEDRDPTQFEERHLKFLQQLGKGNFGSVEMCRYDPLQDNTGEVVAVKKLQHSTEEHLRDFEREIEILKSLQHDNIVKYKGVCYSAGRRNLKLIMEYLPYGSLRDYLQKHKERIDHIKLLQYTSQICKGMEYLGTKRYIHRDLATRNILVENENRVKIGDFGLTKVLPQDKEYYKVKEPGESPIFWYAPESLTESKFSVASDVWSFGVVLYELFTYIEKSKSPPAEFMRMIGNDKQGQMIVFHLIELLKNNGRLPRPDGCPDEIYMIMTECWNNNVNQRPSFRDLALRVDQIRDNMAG

Row | Sequence | phosphorylation enrichment
34 | QEGPEYWDQET [HLA-A_Y83] | 1.94
35 | RSYSPCDYQPC [TNS1_Y796_Y796C] | 0.533
36 | DIDKIYVRTGI [PIK3CA_Y355] | 0.878
37 | LVMFIDAIFGM [SCN1A_Y1684_Y1684D] | 1.79
38 | ASGKYYAMKIL [AKT3_Y174] | 0.662
39 | VNNTVYGIDAM [EIF3J_Y143_A141T] | 0.696
40 | LSSLAYSGKDA [FXN_Y205] | 0.75
41 | FGISGYVVDSV [MAP2K3_Y214_L215V] | 0.761
42 | ENRKFYKDLKE [PURA_Y156_M157K_YF] | 0.536
43 | HDRREYSRFEK [ITGB7_Y758_Y753H] | 0.647
44 | SSVAGYACLAY [MVD_Y131_A128V] | 0.852
45 | VRVQLYDPDFM [CYP4A22_Y100_Y104F] | 1.07
46 | KDKLPYPYDDP [GPX2_Y125] | 1.04
47 | GLDSSYLLRDS [SH2D1A_Y29_G27S] | 0.464
48 | KFVKMYDNHQL [MYO9A_Y203_YF] | 0.402
49 | SSMNDYNPLEK [MYOC_Y479_I477N] | 1.07
50 | TDKLFYIFTSG [SLC27A4_Y243_YF] | 1.41

Row | Sequence | phosphorylation enrichment
51 | FGRTFYNQANM [MCCC2_Y196_I200N] | 0.994
52 | VFGEEYEEQPR [ZMYM2_Y1033] | 1.23
53 | SGPRHYTIAAL [TTR_Y125_R124H] | 0.525
54 | YRDMDYRSYPH [RBM10_Y41_R46H] | 0.621
55 | RSGNCYLDIRP [FBN1_Y1535] | 1.45
56 | IHKEFYDGLFP [BCR_Y561] | 1.06
57 | KQFWRYFPGNL [SLC25A4_Y112_A114P] | 0.919
58 | KSSDVYVSFDF [SORL1_Y136_YF] | 0.983
59 | PKEQKYSFLQN [GH1_Y68] | 0.688
60 | ILCTVYAFKTR [GRM3_Y754] | 1.33
61 | PSALGYSPSLH [LLGL2_Y40_R45H] | 0.71
62 | PVQAPYQKVVA [HBB_Y131_A130P] | 0.687
63 | QGIIIYKAAFF [SLC25A4_Y187_R188K_YF] | 1.05
64 | GIVEDYRPPLY [ACVRL1_Y421_F425L] | 0.675
65 | LHNLFYQLEAE [PKP2_Y616_S615F] | 2.4
66 | DTKDDYNALSV [IL17RB_Y457] | 0.916

Each sequence was assayed against FGFR3 (UniProt P22607) in the same assay as above.
FGFR3, sequence (P22607 whole entry, looked up): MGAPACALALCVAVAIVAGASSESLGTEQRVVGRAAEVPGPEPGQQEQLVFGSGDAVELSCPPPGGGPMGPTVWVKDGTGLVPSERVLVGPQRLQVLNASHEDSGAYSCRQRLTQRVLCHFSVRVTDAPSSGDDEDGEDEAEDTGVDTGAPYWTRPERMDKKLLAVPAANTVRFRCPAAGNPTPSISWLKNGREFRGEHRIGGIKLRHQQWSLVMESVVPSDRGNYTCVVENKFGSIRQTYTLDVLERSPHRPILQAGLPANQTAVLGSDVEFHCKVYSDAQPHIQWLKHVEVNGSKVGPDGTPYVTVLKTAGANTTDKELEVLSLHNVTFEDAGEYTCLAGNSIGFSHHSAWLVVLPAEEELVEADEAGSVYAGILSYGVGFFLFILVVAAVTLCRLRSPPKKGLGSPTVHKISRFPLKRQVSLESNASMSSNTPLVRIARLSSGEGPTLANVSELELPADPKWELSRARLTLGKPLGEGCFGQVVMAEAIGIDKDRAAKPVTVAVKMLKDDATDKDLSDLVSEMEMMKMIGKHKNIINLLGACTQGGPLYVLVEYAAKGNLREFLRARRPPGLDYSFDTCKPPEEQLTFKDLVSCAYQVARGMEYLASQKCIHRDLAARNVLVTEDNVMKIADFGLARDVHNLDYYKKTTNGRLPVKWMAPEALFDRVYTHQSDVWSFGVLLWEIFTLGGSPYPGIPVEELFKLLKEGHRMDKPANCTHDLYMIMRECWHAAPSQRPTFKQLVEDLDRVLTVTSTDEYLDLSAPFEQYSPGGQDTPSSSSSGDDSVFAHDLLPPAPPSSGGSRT

Row | Sequence | phosphorylation enrichment
67 | QEGPEYWDQET [HLA-A_Y83] | 1.16
68 | RSYSPCDYQPC [TNS1_Y796_Y796C] | 1.28
69 | DIDKIYVRTGI [PIK3CA_Y355] | 0.772
70 | LVMFIDAIFGM [SCN1A_Y1684_Y1684D] | 2.33
71 | ASGKYYAMKIL [AKT3_Y174] | 0.623
72 | VNNTVYGIDAM [EIF3J_Y143_A141T] | 0.461
73 | LSSLAYSGKDA [FXN_Y205] | 0.671
74 | FGISGYVVDSV [MAP2K3_Y214_L215V] | 0.623
75 | ENRKFYKDLKE [PURA_Y156_M157K_YF] | 0.493
76 | HDRREYSRFEK [ITGB7_Y758_Y753H] | 0.718
77 | SSVAGYACLAY [MVD_Y131_A128V] | 0.701
78 | VRVQLYDPDFM [CYP4A22_Y100_Y104F] | 0.683
79 | KDKLPYPYDDP [GPX2_Y125] | 0.655
80 | GLDSSYLLRDS [SH2D1A_Y29_G27S] | 0.426
81 | KFVKMYDNHQL [MYO9A_Y203_YF] | 0.512
82 | SSMNDYNPLEK [MYOC_Y479_I477N] | 0.578
83 | TDKLFYIFTSG [SLC27A4_Y243_YF] | 0.886

Row | Sequence | phosphorylation enrichment
84 | FGRTFYNQANM [MCCC2_Y196_I200N] | 0.695
85 | VFGEEYEEQPR [ZMYM2_Y1033] | 0.731
86 | SGPRHYTIAAL [TTR_Y125_R124H] | 0.509
87 | YRDMDYRSYPH [RBM10_Y41_R46H] | 2.1
88 | RSGNCYLDIRP [FBN1_Y1535] | 0.728
89 | IHKEFYDGLFP [BCR_Y561] | 0.853
90 | KQFWRYFPGNL [SLC25A4_Y112_A114P] | 0.676
91 | KSSDVYVSFDF [SORL1_Y136_YF] | 2.81
92 | PKEQKYSFLQN [GH1_Y68] | 0.978
93 | ILCTVYAFKTR [GRM3_Y754] | 0.715
94 | PSALGYSPSLH [LLGL2_Y40_R45H] | 0.553
95 | PVQAPYQKVVA [HBB_Y131_A130P] | 0.429
96 | QGIIIYKAAFF [SLC25A4_Y187_R188K_YF] | 0.852
97 | GIVEDYRPPLY [ACVRL1_Y421_F425L] | 0.608
98 | LHNLFYQLEAE [PKP2_Y616_S615F] | 1.07
99 | DTKDDYNALSV [IL17RB_Y457] | 0.718

The sequences below were run against FGFR1 (UniProt P11362) in the same assay as above.
FGFR1, sequence (P11362 whole entry, looked up): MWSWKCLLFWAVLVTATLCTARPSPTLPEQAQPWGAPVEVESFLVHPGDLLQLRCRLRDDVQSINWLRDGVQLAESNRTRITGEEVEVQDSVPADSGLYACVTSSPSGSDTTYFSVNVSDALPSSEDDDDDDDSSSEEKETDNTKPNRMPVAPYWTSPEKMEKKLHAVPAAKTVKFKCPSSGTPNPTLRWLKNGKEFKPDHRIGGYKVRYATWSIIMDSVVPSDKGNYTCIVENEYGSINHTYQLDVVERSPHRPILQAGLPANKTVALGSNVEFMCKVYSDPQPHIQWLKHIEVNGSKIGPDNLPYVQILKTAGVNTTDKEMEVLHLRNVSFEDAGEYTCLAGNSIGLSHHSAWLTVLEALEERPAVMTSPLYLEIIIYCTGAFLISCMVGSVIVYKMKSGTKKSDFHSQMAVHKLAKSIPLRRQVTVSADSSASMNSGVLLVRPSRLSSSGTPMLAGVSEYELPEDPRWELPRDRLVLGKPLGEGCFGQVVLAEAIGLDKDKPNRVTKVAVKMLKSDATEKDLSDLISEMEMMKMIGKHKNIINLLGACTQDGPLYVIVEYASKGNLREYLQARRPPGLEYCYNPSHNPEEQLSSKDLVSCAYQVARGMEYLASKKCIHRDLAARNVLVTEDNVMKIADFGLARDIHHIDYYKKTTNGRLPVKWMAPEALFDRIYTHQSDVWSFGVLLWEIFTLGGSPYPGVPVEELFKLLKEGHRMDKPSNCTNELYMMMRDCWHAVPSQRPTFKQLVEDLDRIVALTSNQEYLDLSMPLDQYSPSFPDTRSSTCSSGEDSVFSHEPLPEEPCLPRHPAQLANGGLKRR

Row | Sequence | phosphorylation enrichment
100 | QEGPEYWDQET [HLA-A_Y83] | 0.816
101 | RSYSPCDYQPC [TNS1_Y796_Y796C] | 2.76
102 | DIDKIYVRTGI [PIK3CA_Y355] | 0.518
103 | LVMFIDAIFGM [SCN1A_Y1684_Y1684D] | 1.07
104 | ASGKYYAMKIL [AKT3_Y174] | 0.74
105 | VNNTVYGIDAM [EIF3J_Y143_A141T] | 0.512
106 | LSSLAYSGKDA [FXN_Y205] | 0.66
107 | FGISGYVVDSV [MAP2K3_Y214_L215V] | 0.478
108 | ENRKFYKDLKE [PURA_Y156_M157K_YF] | 0.401
109 | HDRREYSRFEK [ITGB7_Y758_Y753H] | 0.585
110 | SSVAGYACLAY [MVD_Y131_A128V] | 0.495
111 | VRVQLYDPDFM [CYP4A22_Y100_Y104F] | 0.45
112 | KDKLPYPYDDP [GPX2_Y125] | 0.562
113 | GLDSSYLLRDS [SH2D1A_Y29_G27S] | 0.613
114 | KFVKMYDNHQL [MYO9A_Y203_YF] | 0.418
115 | SSMNDYNPLEK [MYOC_Y479_I477N] | 0.456
116 | TDKLFYIFTSG [SLC27A4_Y243_YF] | 0.686

Row | Sequence | phosphorylation enrichment
117 | FGRTFYNQANM [MCCC2_Y196_I200N] | 0.433
118 | VFGEEYEEQPR [ZMYM2_Y1033] | 0.614
119 | SGPRHYTIAAL [TTR_Y125_R124H] | 0.404
120 | YRDMDYRSYPH [RBM10_Y41_R46H] | 3.25
121 | RSGNCYLDIRP [FBN1_Y1535] | 0.802
122 | IHKEFYDGLFP [BCR_Y561] | 0.606
123 | KQFWRYFPGNL [SLC25A4_Y112_A114P] | 0.444
124 | KSSDVYVSFDF [SORL1_Y136_YF] | 3.78
125 | PKEQKYSFLQN [GH1_Y68] | 0.719
126 | ILCTVYAFKTR [GRM3_Y754] | 0.543
127 | PSALGYSPSLH [LLGL2_Y40_R45H] | 0.48
128 | PVQAPYQKVVA [HBB_Y131_A130P] | 0.436
129 | QGIIIYKAAFF [SLC25A4_Y187_R188K_YF] | 0.798
130 | GIVEDYRPPLY [ACVRL1_Y421_F425L] | 0.387
131 | LHNLFYQLEAE [PKP2_Y616_S615F] | 1.02
132 | DTKDDYNALSV [IL17RB_Y457] | 0.544
